Holding throughout (assay): pull-down; 2 pmol Halo-Sld5 GINS fixed on 10 µL HaloLink Resin, blocked with casein and BSA; 2 pmol Pol ε with 2 mg/mL BSA in 400 µL 25 mM HEPES-KOH pH 7.6, 200 mM K-acetate, 2 mM Mg-acetate, 10% glycerol, 0.1% Tween 20, 0.01% NP-40, 30 °C for 30 min; blot for Dpb2 and Psf2, band intensity compared to Psf1
In assay [1] the target is GINS complex with the Psf1-100 mutant subunit (V161A, F162A, I163A, D164A), Psf2, Psf3, Halotag-Sld5 (S. cerevisiae) (UniProt Q12488).
Assay [2] concerns the target GINS complex with the Psf1-1 mutant subunit (R84G), Psf2, Psf3, Halotag-Sld5 (S. cerevisiae) (UniProt Q12488).
For assay [3], the target named is T1, DNA polymerase epsilon (Pol ε) comprising Pol2, Dpb2, Dpb3 and Dpb4 subunits (S. cerevisiae, UniProt P21951 1-2222; P24482 1-689; P27344 1-201; Q04603 1-196).
T1 construct: Pol2, catalytic subunit of DNA polymerase epsilon, S. cerevisiae; Dpb2, noncatalytic subunit of DNA polymerase epsilon, S. cerevisiae; Dpb3, noncatalytic subunit of DNA polymerase epsilon, S. cerevisiae; Dpb4, noncatalytic subunit of DNA polymerase epsilon, S. cerevisiae; source: purified as described previously [40]; copies: + + +
As to conditions: both partners purified.

T1 sequence (P21951 whole entry, chain 1 of 4): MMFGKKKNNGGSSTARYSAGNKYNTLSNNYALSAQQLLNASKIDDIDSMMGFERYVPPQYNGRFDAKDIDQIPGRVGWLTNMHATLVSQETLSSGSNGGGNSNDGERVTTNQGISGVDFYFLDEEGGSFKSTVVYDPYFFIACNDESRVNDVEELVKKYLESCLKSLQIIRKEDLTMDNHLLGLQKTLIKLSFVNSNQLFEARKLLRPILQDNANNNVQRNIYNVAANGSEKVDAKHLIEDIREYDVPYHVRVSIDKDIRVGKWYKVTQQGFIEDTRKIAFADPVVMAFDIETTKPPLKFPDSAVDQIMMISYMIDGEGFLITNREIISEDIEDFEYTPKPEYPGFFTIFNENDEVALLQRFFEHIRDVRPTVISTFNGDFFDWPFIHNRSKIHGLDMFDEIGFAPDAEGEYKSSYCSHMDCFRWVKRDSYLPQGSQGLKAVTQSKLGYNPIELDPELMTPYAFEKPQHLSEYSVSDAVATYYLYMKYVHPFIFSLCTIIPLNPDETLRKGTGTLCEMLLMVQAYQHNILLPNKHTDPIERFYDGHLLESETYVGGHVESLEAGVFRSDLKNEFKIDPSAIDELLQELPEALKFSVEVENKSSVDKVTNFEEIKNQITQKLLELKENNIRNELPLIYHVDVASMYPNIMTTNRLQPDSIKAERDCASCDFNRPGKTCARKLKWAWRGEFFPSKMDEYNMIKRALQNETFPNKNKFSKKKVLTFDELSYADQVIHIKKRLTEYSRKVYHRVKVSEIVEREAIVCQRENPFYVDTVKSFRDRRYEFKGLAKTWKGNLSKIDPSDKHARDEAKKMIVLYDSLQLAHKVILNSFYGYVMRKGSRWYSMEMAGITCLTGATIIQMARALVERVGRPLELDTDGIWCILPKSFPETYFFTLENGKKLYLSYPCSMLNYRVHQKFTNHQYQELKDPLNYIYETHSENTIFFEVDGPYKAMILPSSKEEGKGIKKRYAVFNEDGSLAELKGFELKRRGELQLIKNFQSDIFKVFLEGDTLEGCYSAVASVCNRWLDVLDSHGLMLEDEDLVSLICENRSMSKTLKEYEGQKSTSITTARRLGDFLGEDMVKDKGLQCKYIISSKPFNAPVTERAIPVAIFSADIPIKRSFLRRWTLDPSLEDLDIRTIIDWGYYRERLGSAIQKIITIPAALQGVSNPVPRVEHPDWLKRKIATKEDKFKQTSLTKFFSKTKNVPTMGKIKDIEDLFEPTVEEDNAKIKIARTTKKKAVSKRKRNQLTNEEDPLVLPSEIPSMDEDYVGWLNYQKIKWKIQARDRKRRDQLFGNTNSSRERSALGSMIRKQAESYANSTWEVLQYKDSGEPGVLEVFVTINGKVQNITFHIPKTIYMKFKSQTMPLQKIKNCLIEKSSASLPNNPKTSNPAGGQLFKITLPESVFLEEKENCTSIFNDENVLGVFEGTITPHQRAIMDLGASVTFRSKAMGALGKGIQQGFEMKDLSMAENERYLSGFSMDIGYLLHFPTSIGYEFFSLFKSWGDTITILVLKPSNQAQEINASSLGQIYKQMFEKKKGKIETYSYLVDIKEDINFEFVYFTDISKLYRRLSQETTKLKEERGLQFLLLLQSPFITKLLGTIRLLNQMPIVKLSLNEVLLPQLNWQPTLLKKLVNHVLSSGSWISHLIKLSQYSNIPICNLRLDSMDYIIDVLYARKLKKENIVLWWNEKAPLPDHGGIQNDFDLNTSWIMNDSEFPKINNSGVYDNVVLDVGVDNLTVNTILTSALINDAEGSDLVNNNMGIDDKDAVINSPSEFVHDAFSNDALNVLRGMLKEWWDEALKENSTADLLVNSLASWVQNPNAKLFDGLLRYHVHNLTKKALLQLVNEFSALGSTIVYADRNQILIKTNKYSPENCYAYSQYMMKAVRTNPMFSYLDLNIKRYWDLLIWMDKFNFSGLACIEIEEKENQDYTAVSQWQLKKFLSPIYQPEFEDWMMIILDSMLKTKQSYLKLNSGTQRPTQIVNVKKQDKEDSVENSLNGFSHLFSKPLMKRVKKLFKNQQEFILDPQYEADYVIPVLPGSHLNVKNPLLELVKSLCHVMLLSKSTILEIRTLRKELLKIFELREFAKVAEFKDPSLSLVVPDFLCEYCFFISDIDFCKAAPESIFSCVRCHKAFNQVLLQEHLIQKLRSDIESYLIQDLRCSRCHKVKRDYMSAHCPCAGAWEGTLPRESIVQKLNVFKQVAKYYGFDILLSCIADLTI
T1 sequence (P24482 whole entry, chain 2 of 4): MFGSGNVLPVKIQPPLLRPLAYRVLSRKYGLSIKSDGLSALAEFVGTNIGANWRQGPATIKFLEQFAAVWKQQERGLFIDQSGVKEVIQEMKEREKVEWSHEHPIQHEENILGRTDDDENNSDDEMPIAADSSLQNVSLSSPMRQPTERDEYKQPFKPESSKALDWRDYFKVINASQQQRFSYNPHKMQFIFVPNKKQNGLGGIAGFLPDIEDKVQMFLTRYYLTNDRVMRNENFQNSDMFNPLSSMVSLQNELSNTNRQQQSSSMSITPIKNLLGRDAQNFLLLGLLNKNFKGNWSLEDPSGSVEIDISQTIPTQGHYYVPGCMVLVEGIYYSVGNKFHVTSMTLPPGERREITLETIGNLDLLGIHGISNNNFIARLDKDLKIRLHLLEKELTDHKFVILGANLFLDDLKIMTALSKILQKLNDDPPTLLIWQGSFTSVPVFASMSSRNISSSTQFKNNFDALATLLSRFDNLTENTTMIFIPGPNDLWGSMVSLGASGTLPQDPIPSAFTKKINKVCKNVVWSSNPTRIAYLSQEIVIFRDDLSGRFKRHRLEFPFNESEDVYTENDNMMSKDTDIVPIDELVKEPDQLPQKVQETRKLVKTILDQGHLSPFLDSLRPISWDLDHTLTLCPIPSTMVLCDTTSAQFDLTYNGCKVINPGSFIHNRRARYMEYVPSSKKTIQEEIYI
T1 sequence (P27344 whole entry, chain 3 of 4): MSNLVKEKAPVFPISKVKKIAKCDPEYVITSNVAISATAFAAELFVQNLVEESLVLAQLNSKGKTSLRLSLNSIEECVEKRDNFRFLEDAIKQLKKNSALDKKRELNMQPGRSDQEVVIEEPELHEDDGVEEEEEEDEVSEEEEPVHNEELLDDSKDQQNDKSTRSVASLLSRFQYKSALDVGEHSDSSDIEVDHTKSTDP
T1 sequence (Q04603 whole entry, chain 4 of 4): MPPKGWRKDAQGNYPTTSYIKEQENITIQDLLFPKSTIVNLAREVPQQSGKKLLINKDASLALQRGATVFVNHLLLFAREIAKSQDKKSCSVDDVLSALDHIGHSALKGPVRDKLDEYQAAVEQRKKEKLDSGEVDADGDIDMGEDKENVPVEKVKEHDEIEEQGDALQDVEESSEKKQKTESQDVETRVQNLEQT

Consider “DNA polymerase epsilon (Pol ε) comprising Pol2, Dpb2, Dpb3 and Dpb4 subunits, P21951 1-2222; P24482 1-689; P27344 1-201; Q04603 1-196”, for which the results for the band intensity compared to Psf1 (relative to Psf1) in assay [1] and in assay [2] were 0.31 and 0.96, respectively.

B1: GINS complex (Psf1, Psf2, Psf3, Halotag-Sld5), wild type (complex, S. cerevisiae)
chain 1: MYGDLGNKLVLEAKRTKQLYARSNQDVNLPMYHEDIIRNILKEVSNLRKNTEYLKEQQQLGMLDDKVAKCQYFVTLLCMERNKRCLLAYQRLRTDILDSMAWNNNGLDLMSSITFSQQDTNNLSHQEQEYLKEYCDLITDLKSGDLVDIDLSGSLVPPSDVFIDVRVLKDAGEIQTEYGVFNLIKDSQFFVRQSDVERLIQQGYLQKI
chain 2: MSLPAHLQQTFSPEEIQFIVENEPIKIFPRITTRQKIRGDDRGTGNHTRWQLITTDDKALNNMVAMRSTEVVLWIALLLKQQSKCSIVAPQWLTTKELDRKIQYEKTHPDRFSELPWNWLVLARILFNKAKDDFHDPIHELRGKIQDLREIRQIKVLKGLKYLNESHLQLDNLSLLEINELRPFITEIMDKLREIHTASLTAGTENDEEEFNI
chain 3: MGYYDIDDVLADGTEFPCKFQYDIPGLGYLENNPGRPITKNTKLSLPLWLARILAIVGGDEALVDEEPVPFVELLPPDMFSTKVMNAIKTDPVALDLHSINSHFFSLAIKWIMLFSEKELANVVSELLLQRAQELNHHASSLSIDLNADSTGKNSANTNIATSTFLLKLEEMEKEIYKKSHESYKDTKRWMFKK
chain 4: MDINIDDILAELDKETTAVDSTKITQGSSSTTHRDANTIVGSSLDLNDKTQIYVSPQQDFSDLMKSWKNERCSPELLPYPHQLMKRLLNRISMQSQLIENISMGFLDMQNASNANPPMPNESKLPLLCMETELERLKFVIRSYIRCRLSKIDKFSLYLRQLNEDENSLISLTDLLSKDEIKYHDTHSLIWLKLVNDSILKYMPEELQAINDTEGSVNMIDEPDWNKFVFIHVNGPPDGKWNEDPLLQENEFGKPCYTVTIPDLKEEVELTIGSIYVMRYEVIRDLLRDDKVALI
notes: Psf1 subunit of GINS, S. cerevisiae; Psf2 subunit of GINS, S. cerevisiae; Psf3 subunit of GINS, S. cerevisiae; Sld5 subunit of GINS, S. cerevisiae; also called GINS_(Psf1); WT; source: purified as described previously [40]; copies: + + +
B1: the binding result in assay [3] is “binds”.

Values taken from paper PMC7762974, “Recombination and Pol ζ Rescue Defective DNA Replication upon Impaired CMG Helicase—Pol ε Interaction” (International Journal of Molecular Sciences, 2020).
